Experimental data as given in the DeepSol protein solubility set.

Experiment: soluble on expression in E. coli; label from the status in PepcDB or PDB records

Row | Sequence | soluble on expression in E. coli
1 | MEQLTKNQRKKRDEIEAGKSYCSRRFGGATCDDKSAQIYARFDKNDWRIQPAEFYRFHDAEVNTFGYF | soluble
2 | MSLYFNKVLGMKEFGKDEKVFYRVAIRAIILQGDKILMVKSNTGDYKFPGGGVEKGETPEETLRREVQEETGYILNEVKEKFGVLIERDRRRRMGCTIFEMTSHYYLCSVIEERGEQHLDKYEEELGFTPIWISLDEVIRENENILNQREKINPWVKRETFVLKKIKEYLNENEGHHHHHH | soluble
3 | STERRRDELSEEINNLREKVMKQSEENNNLQSQVQKLTEENTTLREQVEPTPEDEDDDIELRGAAAAAAPPPPIEEECPEDLPEKFDGNPDMLAPFMAQCQIFMEKSTRDFSVDRVRVCFVTSMMTGRAARWASAKLERSHYLMHNYPAFMMEMKHVFEDPQRREVAKRKIRRLRQGMGSVIDYSNAFQMIAQDLDWNEPALIDQYHEGLSDHIQEELSHLEVAKSLSALIGQCIHIERRLARAAAARKPRSPPRALVLPHIASHHQVDPTEPVGGARMRLTQEEKERRRKLNLCLYCGTGGHYADNCPAKASKSSPAGNSPAPL | soluble
4 | MGSDKIHHHHHHMIGLRLDGYDPDLHHDAAVAFCIRARDDELFSPRHQHRKGQLILALHGAITCEVENAMWMVPPQYAVWLPGSLPHSNHVTAGAELCFLFIEPAAVVMPERCCTLKISPLCRELILSLARRTDPERAQMPTQRLIQVLFDELPQQPQEQLQLPVSGHPKIRQMVETMAQEPARWNTLGQWASVFAMSERNLARLVVKETGLSFRRWRHQLQLILALQALIAGRNVQQTAQMLGYDSTTAFITMFKKGLGQTPGQYLTGELLLPHN | not soluble
5 | MEYGDRHITVVDEHGNEQLCEILFTFESDDFGKSYVFYYPVGVEAEDENGETEVHVSAFIPGDENKEGELLPIETEEEWDMIEEVWNTFCAEQEEEDDE | not soluble
6 | MAQTKPIAEQMAALNNSDDTSFAADRSNSLLNATCPARIQNSVDQRKINRSFNDSLSSGYSGKWLRPKREALKITPLAQIDEAPATKRHSSAKDKHTEYKTRLCDAFRREGYCPYNDNCTYAHGQDELRVPRRRQEYYSRDPPRERRDSRSRRDDVDTTINRSSSSASKHHDENRRPSNNHGSSNRRQICHNFERGNCRYGPRCRFIHVEQMQHFNANATVYAPPSSDCPPPIAYYHHHPQHQQQFLPFPMPYFLAPPPQAQQGAPFPVQYIPQQHDLMNSQPMYAPMAPTYYYQPINSNGMPMMDVTIDPNATGGAFEVFPDGFFSQPPPTIIS | not soluble
7 | DKSRIAHMIDEWDGKEIIYPDDLVFTTMGEDTVKWFLKDSRYTIVTYADSIGCMGCKLKLPVWKDFISYLDSVSDHTVKVIFILHPRDKKEMVHLLEYNDFSYPVCLDIKGSFDKINKIPSNLAFQTFLLDNRNKVIAIGNPIHNPNVRTLYLNLILSDSICKS | not soluble
8 | MRKALKDSKRIVVKVGTSTLTYENGSVNLMRIEKLSRVISDICNMGKEVVLVSSGAIGVGVGKLRLEKKPETIREKQAVAAVGQCALMHIYNKFFGEYSHVVAQVLLTRDVLENERMKNNVCNTFDTLLEKGIIPIVNENDAISIDEIQNILNFGDNDNLSAIVSTLVNADTLIILSDIDGFYDSDPRTNEDSKMLKEVYEITPEIEECAGGAGSNRGTGGMVTKLSAAKVATSNGIDMILANGENPEILIDILNGEDIGTMFVAKKGELEHHHHHH | not soluble
9 | MSLDFLSQCTSGGCGAKIESRVLNQLLQHLPETPANERLLVGFEHADDAAVYQITSEKALISTVDFFSPMVNDPLSFGKIAVANALSDVYAMGGTVLYALNLVCFPQKMSKEWLEQMLLGGSLKLKEAGALLAGGHSIYDHEPKYGLAVTGEVHPENLWHNNTPQVGDVLILTKALGVGIIQAAVRGQLAKQTEQKIAQDSMERLNKYAAANARSYAVHACTDVTGFGLLIHAKEMADNQVTLLIDTEALPTITGALAYAAECLVTAAGQRNRQTIGTTIDYSKISMEMQELLFDPQTSGGLLISVAADEAAACLAAIQKEDPVAKIIGEVLPKEQQAVVLLEGHHHHHH | not soluble
10 | MSELNALLKDINGSLTATSESLERLSGIYSNSATDEIPESNQLHEHLFYDAKKPAEKVSLLSLKNGSMLGYINSLLMLIGNRLDDECKDPSAMDARERSIQHRVVLERGVKPLEKKLAYQLDKLTRAYVKMEKEYKDAEKRALEKSTLVNHSGNDDSEDDESSEDEIAYRPNTSGIINTNKKSSAYRVEETAKQENGEENDDNETGVYKPPKITAVLPPQQTHFEDRFDAREHKDRSNKSRMQAMEEYIRESSDQPDWSASIGADIVNHGRGGIKSLRDTEKERRVTSFEEDNFTRLNITNKAEKRKQKQRERNARMNVIGGEDFGIFSSKRKLEDSTSRRGAKKTRSAWDRAQRRL | soluble
11 | MGKKSKNSVTTQTQWKRLKIDFVERKIDKDDVFFEEVSDEQLNDKIIVPLFTSSGTFEETIGILIQWQEYLKSRSDRLSEVFLSKVNSYFEHIRITLALPFDESKWAELETLTETDLNKTPIFINNIRTSTVSVILHLENLIKSFHLNVKSAEIFPFDSDSFGLPPINCRKILNPLLWMKAGIEKLIQNNCQCDQPPIVPLITLLDLAPKEGHFQELAIASFFLENTAHKLDYSCSDDEKKFLDQIKMKFGTTKVDKLTMVLPDILMAYSEELVERVMPVSYFIPFELFRMMLLSWQPKVLNLRLRTEACSSIEDAARIEWDDEDVFTSTTLFNCPLFDRCEPVCLGDEEIILNCKLIVDCSGSRLFDPMFNEGNVYTAGRDFLVLFPMQTIILKRIVPLKVGSSVKVQLKKQIDYIVNTFFFNASEHQDRVVNYELTFTNSTDVQMSAVKRCIPQVANGRQIGVNLNVEQETRDLFTDHGNSCPGRHMFASFFDSENQVIVDLKVVLAN | not soluble
12 | MGSDKIHHHHHHMSNLPLISVVIPTYGREEILRDSIVDVLNQDYPKYEVLVVDQSPKHKPEIETYLEEVAAAGKVKWFRLDWASLPGARNYAIRRASGEIILFIDDDVKLKPGFLAAHAKNYVQNPDVGSVAGRVFDRMKLGDSGGNLEIEYLPPEAMDPGVAWYHIDLVHTIKPQQVLTARGCNMSFRREIFTKHGLRFDERFRGSAVREESDFCLRLRQTGYKIWYDPEADLIHLGEETGGCHDISMRSLKYQFTFYHNHFLLGLKNLNFSQALRLYARLFDCHVLGRPPCHKSGSPIKIITRGIFYILGFFRALGSVIQSNWHDGQIYSRLDQESIIKSQESMVNS | not soluble
13 | MSPSASDKPLPPHHAEHMAEAVAEACRGVECGDGGPFGAVVVDSNGKVVAKGHNMVLVTKDPTMHAEMTAIKNACKALGTFDLSGHILYTSCYPCPMCMGGCLWARFDAIYYGATAQQAAEIGFDDKAFHDFLKDPKSDEIRKLEHLAADNYLLPFQMWSNKPDKTEY | soluble
14 | MAHHHHHHMVTGDMSTTVTGLDPHKMARRASRFVSSVKASTGTASSTGRTEMERYFENFASMDSAEGLETIGPKGIQHLCEDLAIKRDSFEMYTLIWKLGITRGGCIPRSDWLNMVYNYNIEVPVELKRRLREWVKDARGPSFVEFYSELYDYIRGDSARMMLPETAARAWDVLFRGDQQVAQWIRWYTGFYDCEVTRDIWRHVALFFNTGENATPYRKEDAWPTAFDLFAEWRETCETP | not soluble
15 | MSPMNRQRKNKSHVLNEKDERPGGIIKEKSSVRSMAKTQPPSGRTISLTEINKPNALSKKNTEIKAAVEIQNRLTKKMAKNSERRKQMAHGPEMTAQNRTQERIDFVDFLDRHYQVIQAGVHKIQYTKEEFENVIYEAQTIFSSEKALVDIDPPCVVVGDLHGQFNDLINMFILLGRPPETVYVFTGDYVDRGMMSLECIMLLFTYKICYPENIVLLRGNHEIARVNKKYGFYEECVTSIPKCGEEIWALFQRCFNNLPISALIATKILCMHGGLSPALTCLDELRNHPKPIRNPFRGIVNDMLWADPDPSVFEWKASSRGSGFTFGTNVIDDVCKRLGVELIIRAHQMCFDGYWVLSGRKLITIFSAPMYCNFYKNAGCVLKVDETLGIQMIAFVPASENIEKIIEEKNRVWDISIDCID | not soluble
16 | MVAHDETGGLLPIKRTIRVLDVNNQSFREQEEPSNKRVRPLARVTSLANLISPVRNGAVRRFGQTIQSFTLRGDHRSPASAQKFSSRSTVPTPAKRRSSALWSEMLDITMKESLTTREIRRQEAIYEMSRGEQDLIEDLKLARKAYHDPMLKLSIMSEEELTHIFGDLDSYIPLHEDLLTRIGEATKPDGTVEQIGHILVSWLPRLNAYRGYCSNQLAAKALLDQKKQDPRVQDFLQRCLESPFSRKLDLWSFLDIPRSRLVKYPLLLKEILKHTPKEHPDVQLLEDAILIIQGVLSDINLKKGESECQYYIDKLEYLDEKQRDPRIEASKVLLCHGELRSKSGHKLYIFLFQDILVLTRPVTRNERHSYQVYRQPIPVQELVLEDLQDGDVRMGGSFRGAFSNSEKAKNIFRIRFHDPSPAQSHTLQANDVFHKQQWFNCIRAAIAPFQSAGSPPELQGLPELHEECEGNHPSARKLTAQRRASTVSSVTQVEVDENAYRCGSGMQMAEDSKSLKTHQTQPGIRRARDKALSGGKRKETLV | soluble
17 | MVAMFLAVAVVLGLATSPTAEGGKATTEEQKLIEDVNASFRAAMATTANVPPADKYKTFEAAFTVSSKRNLADAVSKAPQLVPKLDEVYNAAYNAADHAAPEDKYEAFVLHFSEALRIIAGTPEVHAVKPGA | soluble
18 | MAHHHHHHMHVQARYQRITEAYAVLSDPEKRRAYDAKHGVNFQSRLARLQTVIGHHNTMATQRSTTSCKTACLASTSSPTTDEHDAQHLHAASHKDSAERTVGDDDDEDYDPNDVLAPPRGAPHQGRSSDFYSDDSRDAHGEGDYIARLFSLHLRVGAEAAPKTRNGVPVVQYQAITLTRAYSPPESPYARTWGLVFKKNELVDLDGENLEELARITGLAAVPFPSVVQQINYTMAGTDDRLAAPAISALRIRVHTGLSGEPCHGPNGVDQY | not soluble
19 | GSHMASGDATDITIYYKTGWTHPHIHYSLNQGAWTTLPGVPLTKSEYEGYVKVTIEAEEGSQLRAAFNNGSGQWDNNQGRDYDFSSGVHTLADGRILSGTPK | soluble
20 | MFQIGEHNMILIYKLTLTKLTEDELKKDFATIPSWATHLDLSNNRLGETSNEELIRVFAKIPGWISHIKLRFNNLGQKNGKDLAKAFAKIPISVTTLDLGSNQLGKKSGEELANAFAGIPTSVTRLILSQNELYKRTGGELATAFAKIPSSVTHLVLVNNGLGEKNGKELATAFANIPSSVTTLDLALNDLSKIKSTELAVIFTKIPTSVTQLDLSHNNLNKKSGKNLAKIFANIPTSVTNLNLSCNELGKKSGKGLAAAFAKIPTSVTDLNIEDNDLDNRTGKELAMAFAHIPAFVNTLRLGDNNLGNKSGEELAEIFAKIPLSVTSLDLRYNELGKRNGKELAIAFAKIPSSVTNLNLKFNHLGKITGEELAMAFANIPTNVDSLVLANNELGAKSGEELAKIFSKIPASITSLNMGNDWFAVIEKLSQQKMVLSTITHVVIDYSSAQEHSAKLKLLATVFPNLNKVTFMDIHGNNALAGQNPIEEAKWLKLCGIKNSVPSLLSQALFFVAKNKEHRSIQDYPSLLPKELTDSISSLLKC | not soluble
21 | MSRRGLEREGGKPVSSDAKGLKRVDVRLKWDPSPWDRPPHHLDIIATTYAADAPHGRPVYVVQFDKRSPDGTINMSRHSRTGQGFGFVEEMTFELDRLSPSIARVIVGVAIHQDNGHKTFDDVSNTGVVVAEGYRELLTDGFERVAGATAATVAEFTRNASGAWEFREAVRGFDSDPVLFATEMGSAPRP | soluble
22 | MAPVTPDAVNARQQRPADPALRRLMHPHHRNYTASKASAHSVKSVSRCGKSRSELGRMERVGSVARSICSRHTRHGVDRSHFSLRDFFRGISANFELGKDFLREMNTPIHVSEAVFLPLSLCTLSPGRCLRLSPFGHSLTLGSHCEICINRSQVHVPQEFSSTQLSFFNNVHKIIPNKTFYVSLLSSSPSAVKAGLSQPSLLYAYLVTGHFCGTICPIFSTNGKGRLIMHLLLQGTSLHIPETCLKLLCENIGPTYELAVDLVGDAFCIKVSPRDTVYEKAVNVDEDAIYEAIKDLECGDELRLQIINYTQLILENKQ | not soluble
